Laboratory results: paper PMC11336944, “CWF19L2 is Essential for Male Fertility and Spermatogenesis by Regulating Alternative Splicing” (Advanced Science, 2024)

Biological target: T1, PRPF8 (mouse (endogenous in testis), UniProt Q99PV0 1-2335)
T1 construct: PRPF8 (pre-mRNA-processing-splicing factor 8), mouse, endogenous in testis and sorted germ cells; also called spliceosome skeleton marker PRPF8; source: endogenous, PD10 WT mouse testis extract; endogenous, lysate of sorted germ cells from Cwf19l2‐SKO and control mice
Assay: co-IP; PRPF8 antibody immunoprecipitation from sorted germ cells of Cwf19l2-SKO mice (CWF19L2 deleted in germ cells), immunoblotting, bands quantified against control mice; IgG as negative control
Settings: partners not purified

B1: PRPF43 (natural protein, mouse (endogenous in testis), UniProt O35286 1-795, looked up)
chain: MSKRHRLDLGEDYPSGKKRAGTDGKDRERDRDREDRSKDRDRERDRGDREREREKEKEKELRASTNAMLISAGLPPLKASHSAHSTHSAHSTHSTHSAHSTHTGHTGHTSLPQCINPFTNLPHTPRYYDILKKRLQLPVWEYKDRFTDILVRHQSFVLVGETGSGKTTQIPQWCVEYMRSLPGPKRGVACTQPRRVAAMSVAQRVADEMDVMLGQEVGYSIRFEDCSSAKTILKYMTDGMLLREAMNDPLLERYGVIILDEAHERTLATDILMGVLKEVVRQRSDLKVIVMSATLDAGKFQIYFDNCPLLTIPGRTHPVEIFYTPEPERDYLEAAIRTVIQIHMCEEEEGDLLLFLTGQEEIDEACKRIKREVDDLGPEVGDIKIIPLYSTLPPQQQQRIFEPPPPKKQNGAIGRKVVVSTNIAETSLTIDGVVFVIDPGFAKQKVYNPRIRVESLLVTAISKASAQQRAGRAGRTRPGKCFRLYTEKAYKTEMQDNTYPEILRSNLGSVVLQLKKLGIDDLVHFDFMDPPAPETLMRALELLNYLAALNDDGDLTELGSMMAEFPLDPQLAKMVIASCDYNCSNEVLSITAMLSVPQCFVRPTEAKKAADEAKMRFAHIDGDHLTLLNVYHAFKQNHESVQWCYDNFINYRSLMSADNVRQQLSRIMDRFNLPRRSTDFTSRDYYINIRKALVTGYFMQVAHLERTGHYLTVKDNQVVQLHPSTVLDHKPEWVLYNEFVLTTKNYIRTCTDIKPEWLVKIAPQYYDMSNFPQCEAKRQLDRIIAKLQSKEYSQY
notes: PRPF43 / PRP43 as printed, mouse, endogenous in testis and sorted germ cells; also called PRP43; ILS complex marker PRPF43; source: endogenous, PD10 WT mouse testis extract; endogenous, lysate of sorted germ cells from Cwf19l2‐SKO and control mice
  fold PRPF43 in the PRPF8 co-IP, control over Cwf19l2-SKO, normalised to PRPF8: 1.5 times
